# In PMC3832543:
# Values joined by “and” are separate entries in the source; they are usually repeats but may differ in a detail not shown here. Equal values may be shown once.
# Target: MCL-1ES, wild type (amino acids 1-197), Flag-tagged (human)
# Assay: cross-linking; 293T cells; heavy membrane fraction cross-linked with glutaraldehyde, western blot; increasing MCL-1ES expression; also with MCL-1L over-expressed or knocked down
substance,measurement,value
"MCL-1ES, wild type (amino acids 1-197), Flag-tagged (natural protein)",stoichiometry N,2 and 3
